Test [1] addresses T1, mouse CD3 (mouse).
T1 chain: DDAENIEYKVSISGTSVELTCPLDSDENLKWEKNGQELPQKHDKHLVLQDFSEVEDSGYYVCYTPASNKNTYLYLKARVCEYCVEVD
Nature of the test: SPR Biacore T200, bispecific antibody captured on Protein A/G, antigen as analyte, 37 C. The protocol:
(§1) Anti-mouse CTLA4/anti-mouse CD3 bispecific antibodies (hUH02UL01/2C11-F760) purified and prepared by the method of Reference Example 3-1 were analyzed for their antigen-antibody reactions with each antigen (mCTLA4 and mCD3) using Biacore T200 (GE Healthcare). The running buffer used was HBS-EP+ at pH7.4, and measurements were taken at 37° C. Protein A/G was immobilized onto a Sensor Chip CM4 by amine coupling. hUH02UL01/2C11-F760 was captured onto the sensor chip, and then the antigen (mouse CTLA4 or mouse CD3) was allowed to interact as an analyte (for 120 seconds for mouse CTLA4 and for 90 seconds for mouse CD3), and changes in the bound amount were observed. The running buffer was used for dilution of hUH02UL01/2C11-F760. The measurement results were analyzed by curve fitting using the Biacore T200 Evaluation Software (GE Healthcare) to calculate the association rate constants ka (1/Ms) and the dissociation rate constants kd (l/s). From those values, the dissociation constants KD (M) were determined.

Test [2] concerns the target T2, mouse CTLA4 (mouse, UniProt P09793 36-161, limits assumed).
T2 construct: Soluble antigen used as the analyte in Biacore; also called mCTLA4
The test is described as above. As to the method: as §1

The target in test [3] is T3, mouse FcgRI (mouse, UniProt P26151 25-297).
T3 construct: Used as the soluble analyte in Biacore; also called mFcgRI
T3 sequence (looked up): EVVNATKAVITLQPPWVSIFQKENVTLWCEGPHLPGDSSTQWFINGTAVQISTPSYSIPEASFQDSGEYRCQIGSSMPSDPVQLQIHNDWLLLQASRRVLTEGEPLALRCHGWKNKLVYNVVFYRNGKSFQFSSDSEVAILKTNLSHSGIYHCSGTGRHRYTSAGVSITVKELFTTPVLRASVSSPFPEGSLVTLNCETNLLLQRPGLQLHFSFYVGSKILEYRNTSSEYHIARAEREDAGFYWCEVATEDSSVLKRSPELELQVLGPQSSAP
The experiment in a line: SPR Biacore T200, antibody captured on Protein A/G, FcgR as analyte, 25 C. As to the method:
(§2) Anti-mouse CTLA4 antibody hUH02hUL01-mFa55 and control antibody hUH02hUL01-mIgG2a (the heavy chain variable region UH02 is SEQ ID NO: 28, the light chain variable region UL01 is SEQ ID NO: 29, the heavy chain constant region mIgG2a is SEQ ID NO: 32, and the light chain constant region mk1 is SEQ ID NO: 31) purified and prepared by the method of Reference Example 2-1 were analyzed for their antigen-antibody reactions with various mouse FcgRs (mFcgRI, II, III, and IV) using Biacore T200 (GE Healthcare). The running buffer used was 20 mmol/L ACES, 150 mmol/L NaCl, 0.05% (w/v) Tween20 at pH7.4, and measurements were taken at 25° C. Protein A/G was immobilized onto a Sensor Chip CM7 by amine coupling. hUH02hUL01-mFa55 was captured onto the sensorchip, and then FcgR was allowed to interact as an analyte for 120 seconds, and change in the bound amount was observed. The running buffer was used for dilution of hUH02hUL01-mFa55. The measurement results were analyzed by curve fitting using the Biacore T200 Evaluation Software (GE Healthcare) to calculate the association rate constants ka (1/Ms) and the dissociation rate constants kd (l/s). From those values, the dissociation constants KD (M) were determined.
(In SPR one partner is held on a chip, and binding of the other changes the refractive index at the surface.)

For test [4], the target named is T4, mouse FcgRII (mouse, UniProt P08101 30-210).
T4 construct: Used as the soluble analyte in Biacore; also called mFcgRII
T4 sequence (looked up): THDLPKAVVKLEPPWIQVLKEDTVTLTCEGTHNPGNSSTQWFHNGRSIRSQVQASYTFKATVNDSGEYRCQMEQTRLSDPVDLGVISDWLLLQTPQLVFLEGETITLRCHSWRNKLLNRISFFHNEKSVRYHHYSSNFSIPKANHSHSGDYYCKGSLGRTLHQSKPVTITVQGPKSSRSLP
The description is as above. As to the method: as §2

For test [5], the target named is T5, mouse FcgRIII (mouse, UniProt P08508 31-215).
T5 construct: Used as the soluble analyte in Biacore; also called mFcgRIII
T5 sequence (looked up): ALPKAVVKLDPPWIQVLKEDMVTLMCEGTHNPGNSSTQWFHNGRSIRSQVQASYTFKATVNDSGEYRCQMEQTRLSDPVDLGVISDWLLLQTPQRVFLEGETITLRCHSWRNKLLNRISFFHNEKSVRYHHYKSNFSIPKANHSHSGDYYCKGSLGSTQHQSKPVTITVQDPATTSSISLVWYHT
The description is as above. The protocol: as §2

Test [6] concerns the target T6, mouse FcgRIV (mouse, UniProt A0A0B4J1G0 21-203).
T6 construct: Used as the soluble analyte in Biacore; also called mFcgRIV
T6 sequence: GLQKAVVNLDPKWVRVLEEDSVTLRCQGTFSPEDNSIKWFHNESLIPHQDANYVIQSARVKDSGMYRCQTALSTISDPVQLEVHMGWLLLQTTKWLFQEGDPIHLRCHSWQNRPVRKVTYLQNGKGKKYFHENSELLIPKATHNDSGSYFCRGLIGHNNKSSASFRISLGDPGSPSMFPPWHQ
Described as above. As to the method:
as §2

Usually Kd stands for a measure of binding affinity in units of concentration. A high value points to a looser complex. By koff is commonly meant a measure of how fast the partners let go of each other. Low values mean slow dissociation, high ones fast dissociation. The kon is a measure of how fast the partners come together. Higher therefore signals fast association.

B1: anti-mouse CTLA4/anti-mouse CD3 bispecific antibody (hUH02UL01/2C11-F760) (bispecific antibody, human IgG1, kappa, N297A)
heavy 1: QVQLQESGPGLVKPSETLSLTCTVSGYSISSGYGWNWIRQPPGKGLEWIGFIYYEGSTYYNPSIKSRISITRDTSKNQFFLQVNSVTTEDTATYYCARQTGYFDYWGQGTLVTVSSASTKGPSVFPLAPSSKSTSGGTAALGCLVKDYFPEPVTVSWNSGALTSGVHTFPAVLQSSGLYSLSSVVTVPSSSLGTQTYICNVNHKPSNTKVDKKVEPKSCDKTHTCPPCPAPELRGGPKVFLFPPKPKDTLMISRTPEVTCVVVDVSHEDPEVKFNWYVDGVEVHNAKTKPREEQYASTYRVVSVLTVLHQDWLNGKEYKCKVSNKALPAPIEKTISKAKGQPREPQVYTLPPSRDELTKNQVSLTCLVKGFYPSDIAVEWESNGQPENNYKTTPPYLDSDGSFFLYSKLTVDKSRWQQGNVFSCSVMHEALHNHYTQESLSLSP
light 1: not shown
heavy 2: EVQLVESGGGLVQPGKSLKLSCEASGFTFSGYGMHWVRQAPGRGLESVAYITSSSINIKYADAVKGRFTVSRDNAKNLLFLQMNILKSEDTAMYYCARFDWDKNYWGQGTMVTVSSASTKGPSVFPLAPSSKSTSGGTAALGCLVKDYFPEPVTVSWNSGALTSGVHTFPAVLQSSGLYSLSSVVTVPSSSLGTQTYICNVNHKPSNTKVDKKVEPKSCDKTHTCPPCPAPELRGGPKVFLFPPKPKDTLMISRTPEVTCVVVDVSHEDPEVKFNWYVDGVEVHNAKTKPREEQYASTYRVVSVLTVLHQDWLNGKEYKCKVSNKALPAPIEKTISKAKGQPREPQVYTLPPSRKELTKNQVSLTCLVKGFYPSDIAVEWESNGQPENNYKTTPPYLDSDGSFFLYSKLTVDKSRWQQGNVFSCSVMHEALHNHYTQKSLSLSP
light 2: DIQMTQSPSSLPASLGDRVTINCQASQDISNYLNWYQQKPGKAPKLLIYYTNKLADGVPSRFSGSGSGRDSSFTISSLESEDIGSYYCQQYYNYPWTFGPGTKLEIKRTVAAPSVFIFPPSDEQLKSGTASVVCLLNNFYPREAKVQWKVDNALQSGNSQESVTEQDSKDSTYSLSSTLTLSKADYEKHKVYACEVTHQGLSSPVTKSFNRGEC
notes: also called T cell-redirecting antibody
In test [1], B1 gave a Kd of 1160 nM, a koff of 0.0712 s⁻¹ and a kon of 61600 M⁻¹ s⁻¹. In test [2], this molecule gave a Kd of 1.23 nM, an off-rate constant (koff) of 0.00053 s⁻¹ and a kon of 430000 M⁻¹ s⁻¹.

B2: control antibody hUH02hUL01-mIgG2a (antibody)
heavy: QVQLQESGPGLVKPSETLSLTCTVSGYSISSGYGWNWIRQPPGKGLEWIGFIYYEGSTYYNPSIKSRISITRDTSKNQFFLQVNSVTTEDTATYYCARQTGYFDYWGQGTLVTVSSAKTTAPSVYPLAPVCGDTTGSSVTLGCLVKGYFPEPVTLTWNSGSLSSGVHTFPAVLQSDLYTLSSSVTVTSSTWPSQSITCNVAHPASSTKVDKKIEPRGPTIKPCPPCKCPAPNLLGGPSVFIFPPKIKDVLMISLSPIVTCVVVDVSEDDPDVQISWFVNNVEVHTAQTQTHREDYNSTLRVVSALPIQHQDWMSGKEFKCKVNNKDLPAPIERTISKPKGSVRAPQVYVLPPPEEEMTKKQVTLTCMVTDFMPEDIYVEWTNNGKTELNYKNTEPVLDSDGSYFMYSKLRVEKKNWVERNSYSCSVVHEGLHNHHTTKSFSRTPGK
light: DIVMTQSPDSLAVSLGERATINCKSSQSLFNSNAKTNYLNWYQQKPGQPPKLLIYYASTRHTGVPDRFSGSGSGTDFTLTISSLQAEDVAVYYCQQWYDYPYTFGAGTKVEIKRADAAPTVSIFPPSSEQLTSGGASVVCFLNNFYPKDINVKWKIDGSERQNGVLNSWTDQDSKDSTYSMSSTLTLTKDEYERHNSYTCEATHKTSTSPIVKSFNRNEC
notes: Same variable regions as hUH02hUL01-mFa55, with an unmodified mouse IgG2a constant region
On to B2, for which the Kd in test [3] stood at 6.1 nM; in test [4], 780 nM; in test [5], 250 nM; in test [6], 13 nM. The dissociation rate constant (koff) in test [3] came to 0.0047 s⁻¹; in test [4] it was 1.1 s⁻¹; in test [5], 0.51 s⁻¹; in test [6] it was 0.016 s⁻¹. Also, the on-rate constant (kon) in test [3] amounted to 780000 M⁻¹ s⁻¹; in test [4] it was 1.3e+06 M⁻¹ s⁻¹; in test [5], 2e+06 M⁻¹ s⁻¹; in test [6], 1.2e+06 M⁻¹ s⁻¹.

B3: anti-mouse CTLA4 antibody hUH02hUL01-mFa55 (antibody, mouse IgG2a, kappa)
heavy: QVQLQESGPGLVKPSETLSLTCTVSGYSISSGYGWNWIRQPPGKGLEWIGFIYYEGSTYYNPSIKSRISITRDTSKNQFFLQVNSVTTEDTATYYCARQTGYFDYWGQGTLVTVSSAKTTAPSVYPLAPVCGDTTGSSVTLGCLVKGYFPEPVTLTWNSGSLSSGVHTFPAVLQSDLYTLSSSVTVTSSTWPSQSITCNVAHPASSTKVDKKIEPRGPTIKPCPPCKCPAPNLLGGPDVFIFPPKIKDVLMISLSPIVTCVVVDVSEDDPDVQISWFVNNVEVHTAQTQTHREDYNSTLRVVSALPIQHQDWMSGKEFKCKVNNKDLPAPIERTISKPKGSVRAPQVYVLPPPEEEMTKKQVTLTCMVTDFMPEDIYVEWTNNGKTELNYKNTEPVLDSDGSYFMYSKLRVEKKNWVERNSYSCSVVHEGLHNHHTTKSFSRTPGK
light: DIVMTQSPDSLAVSLGERATINCKSSQSLFNSNAKTNYLNWYQQKPGQPPKLLIYYASTRHTGVPDRFSGSGSGTDFTLTISSLQAEDVAVYYCQQWYDYPYTFGAGTKVEIKRADAAPTVSIFPPSSEQLTSGGASVVCFLNNFYPKDINVKWKIDGSERQNGVLNSWTDQDSKDSTYSMSSTLTLTKDEYERHNSYTCEATHKTSTSPIVKSFNRNEC
notes: Mouse IgG2a/kappa format; also called hUH02UL01-mFa55; ADCC-enhanced antibody
On to B3, for which the equilibrium dissociation constant (Kd) in test [3] turned out to be 2.5 nM; in test [4] it was 370 nM; in test [5] it was 260 nM; in test [6] it was 1.9 nM. Further, the koff in test [3] turned out to be 0.0031 s⁻¹; in test [4], 0.76 s⁻¹; in test [5], 0.62 s⁻¹; in test [6], 0.0028 s⁻¹. Moreover, the kon in test [3] came to 1.2e+06 M⁻¹ s⁻¹; in test [4], 2.1e+06 M⁻¹ s⁻¹; in test [5], 2.4e+06 M⁻¹ s⁻¹; in test [6], 1.5e+06 M⁻¹ s⁻¹.

Source of the values: patent publication US20180326058A1 (Chugai, published 2018).
